± gives the standard deviation of the averaged measurements.
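Further: ATP exposure 15 min at 22 °C before imaging.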

For this data set, the system named is ATP. Kind of data set: switch fluorescence ratio, 500 uM ATP over buffer (Cy3 cluster intensity, sum of 5 cycles each) (fold (ratio)); higher = stronger signal-on switching upon ATP binding; sequences stand for … in TCGTCGGCAGCGTCAGATGTGTATAAGAGACAGTTTTTTTTTTTTTTTTTTTTTTTTT…TC. As to conditions: aptamer strand: ATP DNA aptamer (quencher-CACCTGGGGGAGTATTGCGGAGGAAGG + anchor), 100 nM annealed; ATP concentration: 500 uM. The essentials:
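After annealing to 100 nM quencher-labelled ATP aptamer, Cy3-labelled switching-strand clusters on a modified Illumina MiSeq flow-cell were imaged in selection buffer. A second image followed after 15 min with 500 uM ATP at 22 °C, and five such buffer/ATP cycles were done, each separated by NaOH stripping and re-annealing. The fluorescence ratio, averaged per switch-domain sequence, is summed target-cycle over summed buffer-cycle Cy3 intensity per cluster, with clusters outside 100-1000 RFU excluded.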
Consider CGGTTTTTAT, for which the switch fluorescence ratio stood at 0.983 ± 0.018.

TTTGAGTGGT: the switch fluorescence ratio was determined as 0.993 ± 0.013.

As to AGGGTTGGG, the switch fluorescence ratio turned out to be 1.03 ± 0.029.

On to AGCAAGGGGG, for which the switch fluorescence ratio was 1.09 ± 0.11.

Take GCCGGCACTG: the switch fluorescence ratio came out at 1.002 ± 0.0064.

Take GGTGATGTGG: the switch fluorescence ratio amounted to 0.986 ± 0.022.

As for ATTTCGTTCG, the switch fluorescence ratio was determined as 0.977 ± 0.013.

Regarding ATTTGAACGT, the switch fluorescence ratio was 0.966 ± 0.085.

GAAGATACGG: the switch fluorescence ratio was found to be 1.03 ± 0.032.

On to CGTTTGGAAC, for which the switch fluorescence ratio was found to be 1.01 ± 0.055.

GATCCGGCTT: the switch fluorescence ratio was 1.04 ± 0.035.

On to AGGCTTAAAT, for which the switch fluorescence ratio was found to be 0.989 ± 0.025.

Turning to ACCTTATCCT, the switch fluorescence ratio is 1.16 ± 0.012.

As to CGGCTGCGTG, the switch fluorescence ratio worked out at 0.998 ± 0.0073.

Turning to AATTGATTTA, the switch fluorescence ratio worked out at 1 ± 0.086.

For the sequence AGATGTATAG, the switch fluorescence ratio amounted to 1.034 ± 0.009.

With CTATCTGCGG, the switch fluorescence ratio worked out at 1.04 ± 0.046.

For the sequence ATAATTCGGT, the switch fluorescence ratio is 0.985 ± 0.025.

As for GGTAGGCCTG, the switch fluorescence ratio is 0.989 ± 0.056.

As to AGGTGGGGTC, the switch fluorescence ratio was 0.984 ± 0.016.

As to TTTTGGCTGG, the switch fluorescence ratio was found to be 1.01 ± 0.052.

With GAATAGAGGT, the switch fluorescence ratio came to 1.02 ± 0.037.

Turning to CTTCGGCCTT, the switch fluorescence ratio came to 0.976 ± 0.02.

On to TATAGGTGTT, for which the switch fluorescence ratio came out at 1.05 ± 0.028.

Regarding CAGGTTTGG, the switch fluorescence ratio was 0.982 ± 0.014.

On to GAGGTGTGAG, for which the switch fluorescence ratio stood at 1.03 ± 0.018.

As for GTGGGAAAGG, the switch fluorescence ratio turned out to be 0.9715 ± 0.0057.

In the case of TGGTAAAGTA, the switch fluorescence ratio was 0.991 ± 0.02.

On to TATTGGTGTT, for which the switch fluorescence ratio was 0.99 ± 0.015.

For the sequence TTAGCCTAGT, the switch fluorescence ratio amounted to 0.965 ± 0.037.

On to GCTCTGTGTT, for which the switch fluorescence ratio was 0.993 ± 0.017.

As to GAAGAATGGT, the switch fluorescence ratio came to 0.975 ± 0.013.

Take ATTAGGGGGT: the switch fluorescence ratio came to 0.988 ± 0.036.

Turning to AATGTGTACT, the switch fluorescence ratio amounted to 1.03 ± 0.032.

Take CTGGTTCTTT: the switch fluorescence ratio was 0.9898 ± 0.0082.

For TGACGCCGGG, the switch fluorescence ratio was found to be 0.98 ± 0.018.

For AAGGGGCATT, the switch fluorescence ratio is 1.01 ± 0.011.

With TAGGTATATC, the switch fluorescence ratio was found to be 0.9843 ± 0.006.

Take TGGGGTTCAG: the switch fluorescence ratio amounted to 1.01 ± 0.019.

As for TTATAGTTGG, the switch fluorescence ratio is 0.98 ± 0.023.

As to TGGGGTTATT, the switch fluorescence ratio was 0.974 ± 0.0098.

As to CAAATACCTG, the switch fluorescence ratio was 1.04 ± 0.019.

Regarding CAATGGTCCA, the switch fluorescence ratio was determined as 1.03 ± 0.024.

Take TTTGTCTTTT: the switch fluorescence ratio was 1.02 ± 0.045.

As to ATAAATTGCG, the switch fluorescence ratio came out at 0.9931 ± 0.0086.

Regarding AGGGTAGGGA, the switch fluorescence ratio worked out at 0.9917 ± 0.004.

As for ACTCTATTTG, the switch fluorescence ratio came out at 1.04 ± 0.025.

With ACTTAGGTAA, the switch fluorescence ratio is 1.01 ± 0.024.

Consider TGGTTCGGAA, for which the switch fluorescence ratio came out at 1.016 ± 0.0048.

Turning to GAAGTCGAAT, the switch fluorescence ratio came out at 1.014 ± 0.0091.

On to CTGCTAGCGG, for which the switch fluorescence ratio turned out to be 1.02 ± 0.065.

With AAGAAGCAGG, the switch fluorescence ratio turned out to be 1.06 ± 0.037.

For the sequence GTCAGAGTCT, the switch fluorescence ratio is 1.05 ± 0.021.

Turning to GCGTTTCGGG, the switch fluorescence ratio came to 0.968 ± 0.018.

Consider ATTTTTTTG, for which the switch fluorescence ratio was found to be 0.955 ± 0.021.

GTATCTGATG: the switch fluorescence ratio turned out to be 1.004 ± 0.0027.

For GCTGAAGGGT, the switch fluorescence ratio was 1.012 ± 0.0019.

Take TCAAGAGGCG: the switch fluorescence ratio was 1.019 ± 0.0029.

TTGCATCGGG: the switch fluorescence ratio turned out to be 0.9891 ± 0.0034.

For TGGCGCATTC, the switch fluorescence ratio is 1.3 ± 0.15.

With GGAGGTGG, the switch fluorescence ratio turned out to be 0.942 ± 0.026.

Take GGAGCTGGGA: the switch fluorescence ratio worked out at 1.0097 ± 0.00033.

Turning to TCATATACGC, the switch fluorescence ratio was 1.1 ± 0.011.

Take TGACCCTTCT: the switch fluorescence ratio was determined as 1.14 ± 0.05.

Take GACTGTTATG: the switch fluorescence ratio came to 0.989 ± 0.024.

Regarding AGTTCTACAT, the switch fluorescence ratio was 1.01 ± 0.039.

Take AGTTTGGTCT: the switch fluorescence ratio stood at 0.984 ± 0.034.

With GTGTAATTTG, the switch fluorescence ratio was 0.994 ± 0.036.

Regarding CAGGTCGCGG, the switch fluorescence ratio worked out at 1.005 ± 0.006.

For the sequence ACTTCTAATT, the switch fluorescence ratio is 1.01 ± 0.038.

Turning to TGCTAAATTG, the switch fluorescence ratio came out at 1.015 ± 0.0015.

Regarding TGGGCAATGG, the switch fluorescence ratio amounted to 1.833 ± 0.018.

As to TCATTTTGGG, the switch fluorescence ratio is 0.999 ± 0.028.

Turning to AGAACTTTTA, the switch fluorescence ratio was found to be 0.998 ± 0.015.

As to TTTAATACTG, the switch fluorescence ratio was determined as 1.08 ± 0.089.

In the case of GAAAGGGGCC, the switch fluorescence ratio amounted to 1.01 ± 0.066.

With TCATCCGGAT, the switch fluorescence ratio came out at 1.25 ± 0.049.

ATGGGTTGTG: the switch fluorescence ratio came out at 1 ± 0.03.

As for TTCGTTAGAG, the switch fluorescence ratio was 0.9796 ± 0.0014.
